The assay “ANP receptor (on ANP …)” deals with ANP receptor (on ANP receptor-expressing LLC-PK1 cells). The experiment in a line: cell-based or functional assay.
Assay [1] addresses MCR1 receptor (on MCR1 receptor-expressing B16-F1 cells) (UniProt Q01727 1-315). Briefly: cell-based or functional assay.

Bridge positions count the residues as written; N and C are the ends. Square brackets hold non-standard residues; d marks the D form. Ends that are not written are not given here. Nle = CCCC[C@H](N)C(=O)O

Chain of MCR1 receptor (on MCR1 receptor-expressing B16-F1 cells) (Q01727 whole entry): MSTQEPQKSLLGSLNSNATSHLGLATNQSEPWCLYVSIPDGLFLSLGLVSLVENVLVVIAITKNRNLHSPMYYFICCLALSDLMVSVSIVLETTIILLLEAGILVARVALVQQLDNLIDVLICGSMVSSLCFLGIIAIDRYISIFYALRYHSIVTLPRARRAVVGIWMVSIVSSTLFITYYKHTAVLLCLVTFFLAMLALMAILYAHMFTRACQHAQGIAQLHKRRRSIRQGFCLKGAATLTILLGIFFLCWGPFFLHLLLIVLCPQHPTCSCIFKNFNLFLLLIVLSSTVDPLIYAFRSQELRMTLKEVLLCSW

B1: bifunctional hormone of SEQ ID NO: 34 (peptide)
peptide: Ac-H[dF]RWGKP[Nle]CHFGGR[Nle]DRISCYR-NH2
modifications: disulfide 9-20
SMILES: CCCC[C@@H]1NC(=O)[C@H](CCCNC(=N)N)NC(=O)CNC(=O)CNC(=O)[C@H](Cc2ccccc2)NC(=O)[C@H](Cc2c[nH]cn2)NC(=O)[C@@H](NC(=O)[C@H](CCCC)NC(=O)[C@@H]2CCCN2C(=O)[C@H](CCCCN)NC(=O)CNC(=O)[C@H](Cc2c[nH]c3ccccc23)NC(=O)[C@H](CCCNC(=N)N)NC(=O)[C@@H](Cc2ccccc2)NC(=O)[C@H](Cc2c[nH]cn2)NC(C)=O)CSSC[C@@H](C(=O)N[C@@H](Cc2ccc(O)cc2)C(=O)N[C@@H](CCCNC(=N)N)C(N)=O)NC(=O)[C@H](CO)NC(=O)[C@H]([C@@H](C)CC)NC(=O)[C@H](CCCNC(=N)N)NC(=O)[C@H](CC(=O)O)NC1=O
B1: the “EC50 on the production of cGMP (LLC-PK1 cells)” value (“EC50 on the production of cGMP” for short) with ANP receptor (on ANP …) is 132 nM. Besides, in assay [1], the “EC50 on the production of cAMP (BC16-F1 cells)” value (“EC50 on the production of cAMP” for short) stood at 62.5 nM.

B2: bifunctional hormone of SEQ ID NO: 38 (peptide)
peptide: Ac-HFRWGRRSSCFGGRMDRIGAQSGLGCNSFRY-NH2
modifications: disulfide 10-26
SMILES: CC[C@H](C)[C@@H]1NC(=O)[C@H](CCCNC(=N)N)NC(=O)[C@H](CC(=O)O)NC(=O)[C@H](CCSC)NC(=O)[C@H](CCCNC(=N)N)NC(=O)CNC(=O)CNC(=O)[C@H](Cc2ccccc2)NC(=O)[C@@H](NC(=O)[C@H](CO)NC(=O)[C@H](CO)NC(=O)[C@H](CCCNC(=N)N)NC(=O)[C@H](CCCNC(=N)N)NC(=O)CNC(=O)[C@H](Cc2c[nH]c3ccccc23)NC(=O)[C@H](CCCNC(=N)N)NC(=O)[C@H](Cc2ccccc2)NC(=O)[C@H](Cc2c[nH]cn2)NC(C)=O)CSSC[C@@H](C(=O)N[C@@H](CC(N)=O)C(=O)N[C@@H](CO)C(=O)N[C@@H](Cc2ccccc2)C(=O)N[C@@H](CCCNC(=N)N)C(=O)N[C@@H](Cc2ccc(O)cc2)C(N)=O)NC(=O)CNC(=O)[C@H](CC(C)C)NC(=O)CNC(=O)[C@H](CO)NC(=O)[C@H](CCC(N)=O)NC(=O)[C@H](C)NC(=O)CNC1=O
As for B2, in the assay with ANP receptor (on ANP …), the “EC50 on the production of cGMP” value is 6.9 nM. Moreover, in assay [1], the “EC50 on the production of cAMP” value worked out at 259 nM.

B3: bifunctional hormone of SEQ ID NO: 40 (peptide)
peptide: SLRRSSCFGGRMDRIGAQSGLGCNSFRYHXRW
modifications: disulfide bridge between C residues at positions 7 and 23; D-Phe (f) at position 30; C-terminal amidation (NH2)
For the molecule B3, the “EC50 on the production of cGMP” value with ANP receptor (on ANP …) was found to be 7000 nM. For the same molecule, the “EC50 on the production of cAMP” value in assay [1] worked out at 9.8 nM.

B4: bifunctional hormone of SEQ ID NO: 35 (peptide)
peptide: Ac-H[dF]RWGKP[Nle]CFGGR[Nle]DRIGAQSGLGCNSFRY-NH2
modifications: disulfide 9-25
SMILES: CCCC[C@@H]1NC(=O)[C@H](CCCNC(=N)N)NC(=O)CNC(=O)CNC(=O)[C@H](Cc2ccccc2)NC(=O)[C@@H](NC(=O)[C@H](CCCC)NC(=O)[C@@H]2CCCN2C(=O)[C@H](CCCCN)NC(=O)CNC(=O)[C@H](Cc2c[nH]c3ccccc23)NC(=O)[C@H](CCCNC(=N)N)NC(=O)[C@@H](Cc2ccccc2)NC(=O)[C@H](Cc2c[nH]cn2)NC(C)=O)CSSC[C@@H](C(=O)N[C@@H](CC(N)=O)C(=O)N[C@@H](CO)C(=O)N[C@@H](Cc2ccccc2)C(=O)N[C@@H](CCCNC(=N)N)C(=O)N[C@@H](Cc2ccc(O)cc2)C(N)=O)NC(=O)CNC(=O)[C@H](CC(C)C)NC(=O)CNC(=O)[C@H](CO)NC(=O)[C@H](CCC(N)=O)NC(=O)[C@H](C)NC(=O)CNC(=O)[C@H]([C@@H](C)CC)NC(=O)[C@H](CCCNC(=N)N)NC(=O)[C@H](CC(=O)O)NC1=O
As for B4, the “EC50 on the production of cGMP” value with ANP receptor (on ANP …) was determined as 216 nM. Moreover, the “EC50 on the production of cAMP” value in assay [1] was found to be 31.4 nM.

B5: bifunctional hormone of SEQ ID NO: 42 (peptide)
peptide: Ac-EH[dF]RWGRRSSCFGGRMDRIGAQSGLGCNSFRY-NH2
modifications: disulfide 11-27
SMILES: CC[C@H](C)[C@@H]1NC(=O)[C@H](CCCNC(=N)N)NC(=O)[C@H](CC(=O)O)NC(=O)[C@H](CCSC)NC(=O)[C@H](CCCNC(=N)N)NC(=O)CNC(=O)CNC(=O)[C@H](Cc2ccccc2)NC(=O)[C@@H](NC(=O)[C@H](CO)NC(=O)[C@H](CO)NC(=O)[C@H](CCCNC(=N)N)NC(=O)[C@H](CCCNC(=N)N)NC(=O)CNC(=O)[C@H](Cc2c[nH]c3ccccc23)NC(=O)[C@H](CCCNC(=N)N)NC(=O)[C@@H](Cc2ccccc2)NC(=O)[C@H](Cc2c[nH]cn2)NC(=O)[C@H](CCC(=O)O)NC(C)=O)CSSC[C@@H](C(=O)N[C@@H](CC(N)=O)C(=O)N[C@@H](CO)C(=O)N[C@@H](Cc2ccccc2)C(=O)N[C@@H](CCCNC(=N)N)C(=O)N[C@@H](Cc2ccc(O)cc2)C(N)=O)NC(=O)CNC(=O)[C@H](CC(C)C)NC(=O)CNC(=O)[C@H](CO)NC(=O)[C@H](CCC(N)=O)NC(=O)[C@H](C)NC(=O)CNC1=O
With B5, the “EC50 on the production of cGMP” value with ANP receptor (on ANP …) was 502 nM. In addition, in assay [1], the “EC50 on the production of cAMP” value is 6 nM.

B6: bifunctional hormone of SEQ ID NO: 31 (peptide)
peptide: Ac-H[dF]RWGKPMCHFGGRMDRISCYR-NH2
modifications: disulfide 9-20
SMILES: CC[C@H](C)[C@@H]1NC(=O)[C@H](CCCNC(=N)N)NC(=O)[C@H](CC(=O)O)NC(=O)[C@H](CCSC)NC(=O)[C@H](CCCNC(=N)N)NC(=O)CNC(=O)CNC(=O)[C@H](Cc2ccccc2)NC(=O)[C@H](Cc2c[nH]cn2)NC(=O)[C@@H](NC(=O)[C@H](CCSC)NC(=O)[C@@H]2CCCN2C(=O)[C@H](CCCCN)NC(=O)CNC(=O)[C@H](Cc2c[nH]c3ccccc23)NC(=O)[C@H](CCCNC(=N)N)NC(=O)[C@@H](Cc2ccccc2)NC(=O)[C@H](Cc2c[nH]cn2)NC(C)=O)CSSC[C@@H](C(=O)N[C@@H](Cc2ccc(O)cc2)C(=O)N[C@@H](CCCNC(=N)N)C(N)=O)NC(=O)[C@H](CO)NC1=O
With B6, the “EC50 on the production of cGMP” value in the assay with ANP receptor (on ANP …) was found to be 74.3 nM. Moreover, the “EC50 on the production of cAMP” value in assay [1] stood at 20.9 nM.

B7: bifunctional hormone of SEQ ID NO: 36 (peptide)
peptide: MEHFRWGRRSSCFGGRMDRIGAQSGLGCNSFRY-NH2
modifications: disulfide 12-28; N-terminus assumed
SMILES: CC[C@H](C)[C@@H]1NC(=O)[C@H](CCCNC(=N)N)NC(=O)[C@H](CC(=O)O)NC(=O)[C@H](CCSC)NC(=O)[C@H](CCCNC(=N)N)NC(=O)CNC(=O)CNC(=O)[C@H](Cc2ccccc2)NC(=O)[C@@H](NC(=O)[C@H](CO)NC(=O)[C@H](CO)NC(=O)[C@H](CCCNC(=N)N)NC(=O)[C@H](CCCNC(=N)N)NC(=O)CNC(=O)[C@H](Cc2c[nH]c3ccccc23)NC(=O)[C@H](CCCNC(=N)N)NC(=O)[C@H](Cc2ccccc2)NC(=O)[C@H](Cc2c[nH]cn2)NC(=O)[C@H](CCC(=O)O)NC(=O)[C@@H](N)CCSC)CSSC[C@@H](C(=O)N[C@@H](CC(N)=O)C(=O)N[C@@H](CO)C(=O)N[C@@H](Cc2ccccc2)C(=O)N[C@@H](CCCNC(=N)N)C(=O)N[C@@H](Cc2ccc(O)cc2)C(N)=O)NC(=O)CNC(=O)[C@H](CC(C)C)NC(=O)CNC(=O)[C@H](CO)NC(=O)[C@H](CCC(N)=O)NC(=O)[C@H](C)NC(=O)CNC1=O
Take B7: in the assay with ANP receptor (on ANP …), the “EC50 on the production of cGMP” value is 33.1 nM. For the same molecule, the “EC50 on the production of cAMP” value in assay [1] came out at 49.1 nM.

B8: bifunctional hormone of SEQ ID NO: 39 (peptide)
peptide: Ac-H[dF]RWGRRSSCFGGRMDRIGAQSGLGCNSFRY-NH2
modifications: disulfide 10-26
SMILES: CC[C@H](C)[C@@H]1NC(=O)[C@H](CCCNC(=N)N)NC(=O)[C@H](CC(=O)O)NC(=O)[C@H](CCSC)NC(=O)[C@H](CCCNC(=N)N)NC(=O)CNC(=O)CNC(=O)[C@H](Cc2ccccc2)NC(=O)[C@@H](NC(=O)[C@H](CO)NC(=O)[C@H](CO)NC(=O)[C@H](CCCNC(=N)N)NC(=O)[C@H](CCCNC(=N)N)NC(=O)CNC(=O)[C@H](Cc2c[nH]c3ccccc23)NC(=O)[C@H](CCCNC(=N)N)NC(=O)[C@@H](Cc2ccccc2)NC(=O)[C@H](Cc2c[nH]cn2)NC(C)=O)CSSC[C@@H](C(=O)N[C@@H](CC(N)=O)C(=O)N[C@@H](CO)C(=O)N[C@@H](Cc2ccccc2)C(=O)N[C@@H](CCCNC(=N)N)C(=O)N[C@@H](Cc2ccc(O)cc2)C(N)=O)NC(=O)CNC(=O)[C@H](CC(C)C)NC(=O)CNC(=O)[C@H](CO)NC(=O)[C@H](CCC(N)=O)NC(=O)[C@H](C)NC(=O)CNC1=O
As to B8, the “EC50 on the production of cGMP” value in the assay with ANP receptor (on ANP …) stood at 52.1 nM. Further, the “EC50 on the production of cAMP” value in assay [1] was found to be 11.5 nM.

B9: bifunctional hormone of SEQ ID NO: 33 (peptide)
peptide: Ac-H[dF]RWGKPMCFGGRMDRIGAQSGLGCNSFRY-NH2
modifications: disulfide 9-25
SMILES: CC[C@H](C)[C@@H]1NC(=O)[C@H](CCCNC(=N)N)NC(=O)[C@H](CC(=O)O)NC(=O)[C@H](CCSC)NC(=O)[C@H](CCCNC(=N)N)NC(=O)CNC(=O)CNC(=O)[C@H](Cc2ccccc2)NC(=O)[C@@H](NC(=O)[C@H](CCSC)NC(=O)[C@@H]2CCCN2C(=O)[C@H](CCCCN)NC(=O)CNC(=O)[C@H](Cc2c[nH]c3ccccc23)NC(=O)[C@H](CCCNC(=N)N)NC(=O)[C@@H](Cc2ccccc2)NC(=O)[C@H](Cc2c[nH]cn2)NC(C)=O)CSSC[C@@H](C(=O)N[C@@H](CC(N)=O)C(=O)N[C@@H](CO)C(=O)N[C@@H](Cc2ccccc2)C(=O)N[C@@H](CCCNC(=N)N)C(=O)N[C@@H](Cc2ccc(O)cc2)C(N)=O)NC(=O)CNC(=O)[C@H](CC(C)C)NC(=O)CNC(=O)[C@H](CO)NC(=O)[C@H](CCC(N)=O)NC(=O)[C@H](C)NC(=O)CNC1=O
As to B9, the “EC50 on the production of cGMP” value with ANP receptor (on ANP …) is 69 nM. In addition, the “EC50 on the production of cAMP” value in assay [1] is 10.4 nM.

(Values after patent US20090011997A1 (THERATECHNOLOGIES, published 2009).)
